Consider four molecules from PMC4661524 (Scientific Reports, 2015).

Substitutions are numbered along the chain they refer to. Names and notes keep the numbering of the source.

Settings in all cases: both partners purified
For test [1], the target named is T1, biotinylated HLA-DM ectodomain (human, UniProt P28067 27-233; P28068 19-218, biotin on the C-terminal avitag (BirA); which chain carries the avitag is not stated).
T1 construct: HLA-DM alpha chain, human, ectodomain; HLA-DM beta chain, human, ectodomain; Alpha/beta heterodimer; The supplement says only that avitag and flag-tag stand at a C-terminus; they are written on the beta chain for want of a statement; A KT3-tag at the C-terminus of recombinant DM beta is named in the western blot methods (D1:p7); also called bio-DM; sDM-Avi
T1 sequence (P28067 27-233, chain 1 of 2): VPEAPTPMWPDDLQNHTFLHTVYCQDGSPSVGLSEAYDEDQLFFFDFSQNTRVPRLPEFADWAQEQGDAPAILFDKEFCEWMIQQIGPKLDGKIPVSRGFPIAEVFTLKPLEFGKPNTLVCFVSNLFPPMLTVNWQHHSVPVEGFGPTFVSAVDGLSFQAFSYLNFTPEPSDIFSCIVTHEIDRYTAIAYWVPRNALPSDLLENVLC
T1 sequence (P28068 19-218, chain 2 of 2): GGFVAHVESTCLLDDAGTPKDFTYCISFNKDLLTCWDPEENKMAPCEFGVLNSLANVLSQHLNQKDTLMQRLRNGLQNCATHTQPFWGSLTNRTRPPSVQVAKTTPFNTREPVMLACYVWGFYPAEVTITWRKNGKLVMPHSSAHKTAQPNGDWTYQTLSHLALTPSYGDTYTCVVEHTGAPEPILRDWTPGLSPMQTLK
The test can be described thus: SPR; BIAcore, 25 C, pH 5.5 (running buffer pH 5.49); biotinylated DM on a streptavidin chip, DOv injected; 80 mM citrate-phosphate, 150 mM NaCl, 0.06% BSA, 0.05% P20; apparent KD from fitted equilibrium RU. In general terms: SPR reads the build-up and loss of mass on a sensor chip optically.

For test [2], the target named is T1, biotinylated HLA-DM ectodomain. The test can be described thus: SPR; BIAcore, 37 C, pH 4.85; biotinylated DM on a streptavidin chip, DOv injected; 80 mM citrate-phosphate, 150 mM NaCl, 0.06% BSA, 0.05% P20; apparent KD from fitted equilibrium RU.
For test [3] the target is unchanged. The test is described as follows: SPR; BIAcore, 25 C, pH 7.2 (running buffer pH 7.16); biotinylated DM (120-130 RU) on a streptavidin chip, DOv injected; 80 mM citrate-phosphate, 150 mM NaCl, 0.06% BSA, 0.05% P20; apparent KD from fitted equilibrium RU (slow dissociation model).
The target is the same in test [4]. The test can be described thus: SPR; BIAcore, 25 C, pH 4.85; biotinylated DM on a streptavidin chip, DOv injected; 80 mM citrate-phosphate, 150 mM NaCl, 0.06% BSA, 0.05% P20; apparent KD from fitted equilibrium RU.
The target is the same in test [5]. The test is described as follows: SPR; BIAcore, 37 C, pH 6.3; biotinylated DM on a streptavidin chip, DOv injected; 80 mM citrate-phosphate, 150 mM NaCl, 0.06% BSA, 0.05% P20; apparent KD from fitted equilibrium RU.
The target is the same in test [6]. The test is described as follows: SPR; BIAcore, 25 C, pH 6.3; biotinylated DM on a streptavidin chip; analyte: intact DOv SEC-purified after a pH 4.6 pulse (37 C, 8 min); apparent KD from fitted equilibrium RU.
The target is the same in test [7]. The test is described as follows: SPR; BIAcore, 25 C, pH 6.3 (running buffer pH 6.26); biotinylated DM on a streptavidin chip, untreated DOv injected; 80 mM citrate-phosphate, 150 mM NaCl, 0.06% BSA, 0.05% P20; apparent KD from fitted equilibrium RU.
Test [8] deals with T2, HLA-DM ectodomain of the DM-DOwt complex (human, UniProt P28067 27-233; P28068 19-218).
T2 construct: HLA-DM alpha chain, ectodomain; HLA-DM beta chain, ectodomain; For BLI the DM-DOwt complex was biotinylated; also called DM (in DM-DOwt); DM-DO ectodomains; source: recombinant, purified in complex with DOwt (double SEC-purified DM-DO ectodomains)
T2 sequence (P28067 27-233, chain 1 of 2): as the sequence (P28067 27-233, chain 1 of 2) above
T2 sequence (P28068 19-218, chain 2 of 2): as the sequence (P28068 19-218, chain 2 of 2) above
The test can be described thus: SEC; DM-DOwt ectodomains incubated at pH 4.6, 5.4 or 6.3 for the indicated times (4 h, 24 h) or not treated, separated by size exclusion chromatography; fractions western blotted with DO- or DM-specific antibodies. In general terms: Size exclusion chromatography separates by hydrodynamic size, large species first.

For test [9], the target named is T3, biotinylated DM (soluble HLA-DM, SPR ligand) (human, UniProt P28067 27-233; P28068 19-218, biotin (chain and site not stated) | biotin (chain and site not stated)).
T3 construct: HLA-DM alpha chain, ectodomain; HLA-DM beta chain, ectodomain; captured on a streptavidin chip; also called immobilized DM; source: recombinant, purified
T3 sequence (P28067 27-233, chain 1 of 2): as the sequence (P28067 27-233, chain 1 of 2) above
T3 sequence (P28068 19-218, chain 2 of 2): as the sequence (P28068 19-218, chain 2 of 2) above
The test is described as follows: SPR; BIAcore; 120–130 RU biotinylated DM on a streptavidin chip, DOv injected (Kinject, 30 μl/min, 5 min); 80 mM citrate-phosphate, 150 mM NaCl, 0.06% BSA, 0.05% P20, pH 4.85, 5.49, 6.26, 7.16; 25 °C or 37 °C; single cycle mode at pH 4.85 with >4 h dissociation; apparent constants (slow dissociation model).

Test [10] addresses T4, soluble HLA-DM ectodomain (human, UniProt P28067 27-233; P28068 19-218).
T4 construct: HLA-DM alpha chain, human, ectodomain; HLA-DM beta chain, human, ectodomain; The analyte of the BLI experiments, not biotinylated; also called sDM; soluble DM
The test can be described thus: BLI; Octet QK, 25 C as the table's head says, pH 6.3 (50 mM MES, 150 mM NaCl, 0.01% BSA, 0.002% Tween 20); biotinylated DOv on streptavidin biosensors, soluble DM 6.25-1600 nM; apparent KD from fitted equilibrium wavelength shifts.

In test [11] the target is T4, soluble HLA-DM ectodomain. The test can be described thus: BLI; Octet QK, 25 C as the table's head says, pH 5.5 (50 mM citrate, 150 mM NaCl, 0.01% BSA, 0.002% Tween 20); biotinylated DOv on streptavidin biosensors, soluble DM 6.25-1600 nM; apparent KD from fitted equilibrium wavelength shifts.
Test [12] addresses T4, soluble HLA-DM ectodomain. The test can be described thus: BLI; Octet QK, 25 C as the table's head says, table row pH 4.85 (kinetic buffer 50 mM acetate pH 4.7, 150 mM NaCl, 0.01% BSA, 0.002% Tween 20); biotinylated DOv on streptavidin biosensors, soluble DM 6.25-1600 nM; apparent KD from fitted equilibrium wavelength shifts. Background: Biolayer interferometry detects binding as a change in optical thickness at a sensor tip.

In test [13] the target is T4, soluble HLA-DM ectodomain. The test can be described thus: BLI; Octet QK, 25 C as the table's head says, table row pH 7.2 (kinetic buffer 50 mM HEPES pH 7.4, 150 mM NaCl, 0.01% BSA, 0.002% Tween 20); biotinylated DOv on streptavidin biosensors, soluble DM 6.25-1600 nM; apparent KD from fitted equilibrium wavelength shifts.

T4 sequence (P28067 27-233, chain 1 of 2): as the sequence (P28067 27-233, chain 1 of 2) above
T4 sequence (P28068 19-218, chain 2 of 2): as the sequence (P28068 19-218, chain 2 of 2) above

B1: stabilized HLA-DO variant ectodomain (alpha P11A) (domain or fragment, human)
MHC II alpha: TKADHMGSYGAAFYQSYGASGQFTHEFDEEQLFSVDLKKSEAVWRLPEFGDFARFDPQGGLAGIAAIKAHLDILVERSNRSRAINVPPRVTVLPKSRVELGQPNILICIVDNIFPPVINITWLRNGQTVTEGVAQTSFYSQPDHLFRKFHYLPFVPSAEDVYDCQVEHWGLDAPLLRHWELQVPIPPPDAME
MHC II beta: TDSPEDFVIQAKADCYFTNGTEKVQFVVRFIFNLEEYVRFDSDVGMFVALTKLGQPDAEQWNSRLDLLERSRQAVDGVCRHNYRLGAPFTVGRKVQPEVTVYPERTPLLHQHNLLHCSVTGFYPGDIKIKWFLNGQEERAGVMSTGPIRNGDWTFQTVVMLEMTPELGHVYTCLVDHSSLLSPVSVEWRAQSEYSWRK
notes: HLA-DO alpha chain, human, ectodomain; HLA-DO beta chain, human, ectodomain; Alpha/beta heterodimer, not biotinylated when used as SPR analyte; The avitag is said to stand at the C-terminus of recombinant DO beta (D1:p7); The 'sz' of the cell line's name may mean leucine zippers; In one experiment the intact fraction after a pH 4.6 pulse (37 C, 8 min, SEC 12-13 ml) was used; also called szDOv-Avi
On to B1, for which the Kd in test [1] was determined as 21.9 nM; in [2] it was 240 nM; in test [3] it was 9.4 nM; in test [4] it was 148 nM; in test [5], 12.6 nM; in test [6], 27.5 nM. The Kd in test [7] was 14.1 nM.

B2: wild type HLA-DO ectodomain (DOwt) of the DM-DOwt complex (complex, human)
MHC II alpha: B1 MHC II alpha with A11P
MHC II beta: B1 MHC II beta
notes: HLA-DO alpha chain, ectodomain; HLA-DO beta chain, ectodomain; For BLI the DM-DOwt complex was biotinylated; also called wild type DO; source: recombinant, purified in complex with DM (double SEC-purified DM-DO ectodomains)
For the molecule B2, the binding result in test [8] is “binds”.

B3: stabilized HLA-DO variant (DOv), ectodomain with αP11A (complex, human)
MHC II alpha: B1 MHC II alpha
MHC II beta: B1 MHC II beta
notes: HLA-DO alpha chain, ectodomain; HLA-DO beta chain, ectodomain; Also used after pH 4.6 pulses and SEC isolation of the intact portion (assay a3); also called soluble DOv; source: recombinant, expressed and purified alone
Regarding B3, in [9], the “fold increase of KD,app from pH 7.2 to pH 4.7” value is above 10 fold.

B4: biotinylated stabilized HLA-DO variant ectodomain (alpha P11A) (domain or fragment, human)
MHC II alpha: B1 MHC II alpha
MHC II beta: B1 MHC II beta
modifications: biotin on the C-terminal avitag (BirA)
notes: HLA-DO alpha chain, human, ectodomain; HLA-DO beta chain, human, ectodomain; Same construct as Dm2, biotinylated and held on streptavidin biosensors in BLI; also called bio-DOv; biotinylated DOv
As for B4, the Kd in test [10] was determined as 17 nM; in [11], 26.9 nM; in test [12], 233 nM; in [13], 11.3 nM.
